Laboratory results published in patent US20260061042A1, “POLYNUCLEOTIDE COMPOSITIONS AND USES THEREOF” (Pfizer Inc., priority 2024, published 2026).
Numbering of substitutions follows the chain as printed.

B1: BMD576_PapG-DSF WT_DAF-GPI: monovalent PapG modRNA LNP; RNA construct SEQ ID NO: 65 (nucleic acid)
chain: AGGAGGACUGGUCGAACCUGCAUAGUGAUCAUAAGGUCAGCAUAGCCACCAUGGAGACCGACACCCUCCUGCUGUGGGUGCUGUUACUGUGGGUGCCCGGUAGCACCGGCUGGAACAACAUCGUGUUCUACAGCCUGGGCAACGUGAACAGCUACCAAGGCGGCAACGUGGUGAUCACACAGAGACCUCAGUUCAUCACAAGCUGGAGACCCGGCAUCGCCACCGUGACCUGGAAUCAGUGCAACGGCCCCGAGUUCGCCGACGGCAGCUGGGCCUACUACAGAGAGUACAUCGCCUGGGUGGUGUUCCCCAAGAAGGUGAUGACCAAGAACGGCUACCCCCUGUUCAUCGAGGUGCACAACAAGGGCAGCUGGAGCGAGGAGAACACCGGCGACAGCGACAGCUACUUCUUCCUGAAGGGCUACAAGUGGGACGAGAGAGCCUUCGACGCCGGCAACCUGUGUCAGAAGCCGGGGGAGACCACAAGACUUACCGAGAAGUUCAACGACAUCAUCUUCAAGGUGGCCCUGCCCGCCGACCUGCCCCUGGGCGACUACAGCGUGACCAUCCCCUACACAAGCGGCAUUCAGAGACACUUCGCUAGCUACCUGGGCGCUAGAUUCAAGAUCCCCUACAACGUGGCCAAGACCCUGCCUAGAGAGAACGAGAUGCUGUUCCUGUUCAAGAACAUCGGCGGCUGCAGACCUAGCGCUCAGAGCCUGGAGAUCAAGCACGGCGACCUGAGCAUCAACAGCGCCAACAACCACUACGCCGCUCAGACCCUGAGCGUGAGCUGCGACGUGCCCGCCAACAUCAGAUUCAUGCUGCUGAGAUCAACCACCCCCACCUACAGCCACGGCAAGAAGUUCAGCGUGGGCCUGGGCCACGGCUGGGACAGCAUCGUGAGCGUGAACGGCGUGGACACGGGCGAGACCACUAUGCGUUGGUACAAGGCCGGCACACAGAGCCUGACCAUCGGCAGCAGACUGUAUGGCGAAAGCUCCAAAAUCCAACCCGGCGUGCUGUCGGGGAGCGCCACCCUGCUGAUGAUACUGCCCGGAGGCAGCAGCGGCGGCGCCGACGUGCAGAUCAACAUCAGAGGCAACGUGUAUAUUCCGCCUAGCAGUGGUGGUGGGGGUAGCUCCGGCUCCGGAAGCAGCUGCGAGGGCAUCAGCCUGCUGGCUCAGAACACAAGCUGGCUGCUGCUGCUGCUGCUGAGCCUGAGCCUGCUGCAAGCCACCGACUUCAUGAGCCUGUGAUGAGCUCGCUUUCUUGCUGUCCAAUUUCUAUUAAAGGUUCCUUUGUUCCCUAAGUCCAACUACUAAACUGGGGGAUAUUAUGAAGGGCCUUGAGCAUCUGGAUUCUGCCUAAUAAAAAACAUUUAUUUUCAUUGCAAAAAAAAAAAAAAAAAAAAAAAAAAAAAAAAAAAAAAAAAAAAAAAAAAAAAAAAAAAAAAAAAAAAAAAAAAAAAAAAAA
modifications: modRNA in LNP
B2: BMD576_PapGLD WT_DAF-GPI: monovalent PapG modRNA LNP; RNA construct SEQ ID NO: 45 (nucleic acid)
chain: AGGAGGACUGGUCGAACCUGCAUAGUGAUCAUAAGGUCAGCAUAGCCACCAUGGAGACCGACACACUGCUGCUGUGGGUGCUUUUGUUGUGGGUGCCCGGUUCUACCGGAUGGAACAACAUCGUGUUCUACAGCCUGGGCAACGUGAACAGCUACCAAGGCGGCAACGUGGUGAUCACACAGAGACCUCAGUUCAUCACAAGCUGGAGACCCGGCAUCGCCACCGUGACCUGGAAUCAGUGCAACGGCCCCGAGUUCGCCGACGGCAGCUGGGCCUACUACAGAGAGUACAUCGCCUGGGUGGUGUUCCCCAAGAAGGUGAUGACCAAGAACGGCUACCCCCUGUUCAUCGAGGUGCACAACAAGGGCAGCUGGAGCGAGGAGAACACCGGCGACAGCGACAGCUACUUCUUCCUGAAGGGCUACAAGUGGGACGAGAGAGCCUUCGACGCCGGCAACCUGUGUCAGAAGCCCGGCGAGACCACAAGACUGACCGAGAAGUUCAACGACAUCAUCUUCAAGGUGGCCCUGCCCGCCGACCUGCCCCUGGGCGACUACAGCGUGACCAUCCCCUACACAAGCGGCAUUCAGAGACACUUCGCUAGCUACCUGGGCGCUAGAUUCAAGAUCCCCUACAACGUGGCCAAGACCCUGCCUAGAGAGAACGAGAUGCUGUUCCUGUUCAAGAACAUCGGCGGCAGUUCUGGUGGCGGUGGUUCAAGUGGUAGUGGCAGUUCAAGUGGGACAACACGACUGUUGAGCGGGCAUACGUGUUUUACGCUGACAGGUCUUCUGGGCACGCUGGUUACUAUGGGCUUGCUUACGUGAUGAGCUCGCUUUCUUGCUGUCCAAUUUCUAUUAAAGGUUCCUUUGUUCCCUAAGUCCAACUACUAAACUGGGGGAUAUUAUGAAGGGCCUUGAGCAUCUGGAUUCUGCCUAAUAAAAAACAUUUAUUUUCAUUGCAAAAAAAAAAAAAAAAAAAAAAAAAAAAAAAAAAAAAAAAAAAAAAAAAAAAAAAAAAAAAAAAAAAAAAAAAAAAAAAAAA
modifications: modRNA in LNP
B3: BMD576_PapGLD K172A_DAF-GPI: monovalent PapG modRNA LNP; RNA construct SEQ ID NO: 52 (nucleic acid)
chain: B2 chain with A624G, A625C, G626C
modifications: modRNA in LNP

system: E. coli strain CFT073 expressing the fimbrial adhesin PapG; test: PapG hemagglutination inhibition (HAI) assay on sera of mice immunized with PapG modRNA LNPs; type: in vivo; details: 1 μg, 50 μl IM, weeks 0, 4, bleed week 6, GMT of individual titers
From the text: Escherichia coli to the uroepithelium of human kidney. The PapG lectin binds to the globoside (GbO4) glycolipid, which is enriched in urinary tract tissue and consists of the tetrasacharide GalNAcβ1-3Galα1-4Galβ1-4Glc linked to ceramide. Here we present the use of a hemagglutination inhibition assay (HAI) to determine vaccine functional responses to protein subunit PapG or mRNA-expressed PapG antigens. In this assay the agglutination of human red blood cells (hRBCs) expressing GbO4 is caused by live E. coli CFT073 bacteria expressing PapG. The HAI assay measures the ability of PapG-elicited antibodies to prevent hRBC agglutination, exemplifying inhibition of the key bacterial adherence mechanism leading to clinical pyelonephritis. The assay was used to characterize the functional activity of PapG monoclonal antibodies (mAbs) raised against a PapG lectin domain subunit antigen. PapG HAI data from a mouse immunogenicity study are described that evaluated various 5 monovalent PapG modRNA LNPs and a PapG subunit comparator.
In this mouse study immunogenicity of different PapG mRNA constructs were evaluated. […]
iii. PapG Hemagglutination Inhibition Assay (HAI) 1. Preparation of Single Use Frozen E. coli CFT073 Banks Frozen bacterial stocks for use in the PapG HAI are stored at a concentration of ˜15 OD/mL. For stock preparation, take 6 ×100 μL of frozen parental strain CFT073 glycerol stock to seed six overnight cultures with ˜85 mL Luria's Broth (LB) each in 250 mL vented flasks. Flasks are shaken at 200 rpm and 37° C. overnight. On the same day, prepare 100 mL LB media with 30% glycerol and 0.4% sucrose by mixing […] 80% Glycerol with 0.8 mL 50% Sucrose in 64 mL LB and pre-chill at 4° C. After ˜16 h growth, determine the OD600 nm of each flask with the SpectraMax M5e plate reader by adding 100 μL culture to 900 μL LB (1:10 dilution). After reading the OD600, harvest cells by pelleting in a centrifuge at 4,000g, 4° C., for 30 minute. Determine the total OD of each of the six flasks, by multiplying the volume by OD/mL of each flask and divide by 15 OD to give the appropriate pellet resuspension volume. Discard supernatants and resuspend all pellets in the pre-chilled LB cryopreservant containing 30% glycerol and 0.4% sucrose, with a final volume as calculated above. Pool all resuspended pellets and mix gently, then aliquot into 1 mL/cryotube, and freeze at −70° C.
2. Preparing 10% hRBC Working Solution From Stock
Gently mix human red blood cells (hRBC) bottle (Rockland) by rocking ˜20×times, pipet out 10 mL of the hRBCs into a 15 ml conical tube. Centrifuge at 2,000 rpm(˜990×g) for 10 minutes and 4° C. Aspirate and discard the supernatant, then resuspend the pellet with 9 mL 4° C. PBS. The packed hRBCs in 15 mL conical tube should constitute roughly 1 mL of this total volume. Store these 10% hRBCs at 4° C. until use. […]
iv. PapG Hemagglutination Inhibition (HAI) Assay
The PapG hemagglutination inhibition (HAI) assay uses human red blood cells (hRBCs), which naturally express the PapG ligand GbO4 (globotetraosyl ceramide) on the cell surface, and the E. coli strain CFT073 expressing the fimbrial adhesin PapG. Upon mixing bacteria with hRBCs, […] cells remain suspended (presenting as a cloudy well), while no binding results in the red blood cells falling out of solution towards the center of the well (observed as pellet).
The total final well volume is 100 μL, with serum dilutions comprising 25 μL of this volume, strain CFT073 cells in […] volume, and hRBCs in a 50 μL volume. The assay plate is a V-bottom plate to which 25 μL 4° C. PBS is initially added to all wells. The positive control wells receive an additional 25 μL 4° C. PBS. The no-serum negative control consists of E. coli CFT073 cells plus hRBCs only (resulting agglutinated well appears cloudy). To accommodate pre-diluted sera transferred from the serum Master Dilution plate (MDP) an extra 5 μL 4° C. PBS is added to wells in Row A of the assay plate (columns 1 to 12). […]

Molecule	Step Titer GMT (HAI)
B1	89,753
B2	94,822
B3	98,165

same assay, conditions: 1 μg, 50 μl IM, weeks 0, 4, bleed week 6, serum pool

Molecule	Step Titer Pool (HAI)
B1	81,000
B2	81,000
B3	81,000
